According to patent US7910708 (Novartis, dated 2011):

B1: 01471/G6 Fab (Fab, V domains shown)
VH: EVQLVESGGGVVQPGRSLRLSCAASGFTFSNYGMHWVRQAPGKGLEWVAIIWYDGSNKYYADSVKGRFTISRDNSKNTLYLQMNSLRAEDTAVYYCVKGSGDIPFDYWGQGTLVT
VL: EIVLTQSPATLSSSPGERATLSCRASQSVSSYLAWYQQKPGQAPRLLIYDASNRATGIPARFSGSGSGTDFTLTISSLEPEDFAVYYCHQRSHWPPIFTFGPGT
notes: Soluble human Fab expressed in E. coli, kappa light chain (captured via anti-human L-kappa antibody); the printed variable regions stop short of the end of framework 4
B2: 03161/H2 Fab (Fab, V domains shown)
VH: EVQLVESGGGVVQPGRSLRLSCAASGFTFSNYGMHWVRQAPGKGLEWVAIIWYDGSNKYYADSVKGRFTISRDNSKNTLYLQMNSLRAEDTAVYYCVKGSGDIPFDYWGQGTLVT
VL: EIVLTQSPATLSSSPGERATLSCRASQSVSSYLAWYQQKPGQAPRLLIYDASNRATGTPARFSGSGSGTDFTLTISSLEPEDFAVYYCHQRSHWPPIFTFGPGT
notes: Soluble human Fab expressed in E. coli, kappa light chain
B3: 01951/G12 Fab (Fab, V domains shown)
VH: EVQLVESGGGVVQPGRSLRLSCAASGFTFSSYGMHWVRQAPGKGLEWVAIIWYDGSNKYYADSVKGRFTISRDNSKNTLYLQMNSLRAEDTAVYYCARLWFGDLDAFDIWGQGTMVT
VL: EIVLTQSPATLSLSPGERAILSCRAGQSVSSYLVWYQQKPGQAPRLLIYDASNRATGIPARFSGSGSGTDFTLTISSLEPEDFAVYYCQQRSSWPPVYTFGQGT
notes: as for B2
B4: 01771/E10 Fab (Fab, V domains shown)
VH: QVQLVQSGGGVVQPGRSLRLSCAASGFTFSSYGMHWVRQAPGKGLEWVAIIWYDGSNKYYADSVKGRFTISRDNSKNTLYLQMNSLRAEDTAVYYCARLWFGDLDAFDIWGQGTMVT
VL: EIVLTQSPATLSLSPGERATLSCRASQSVSSYLAWYQQKPGQAPRLLIYDASNRATGIPARFSGSGSGTDFTLTISSLEPEDFAVYYCHQRSSWPPIFTFGPGT
notes: as for B2
B5: 01471/G6 antibody (human IgG1, kappa) (antibody, V domains shown)
VH: EVQLVESGGGVVQPGRSLRLSCAASGFTFSNYGMHWVRQAPGKGLEWVAIIWYDGSNKYYADSVKGRFTISRDNSKNTLYLQMNSLRAEDTAVYYCVKGSGDIPFDYWGQGTLVT
VL: EIVLTQSPATLSSSPGERATLSCRASQSVSSYLAWYQQKPGQAPRLLIYDASNRATGIPARFSGSGSGTDFTLTISSLEPEDFAVYYCHQRSHWPPIFTFGPGT
B6: 03161/H2 antibody (human IgG1, kappa) (antibody, V domains shown)
VH: EVQLVESGGGVVQPGRSLRLSCAASGFTFSNYGMHWVRQAPGKGLEWVAIIWYDGSNKYYADSVKGRFTISRDNSKNTLYLQMNSLRAEDTAVYYCVKGSGDIPFDYWGQGTLVT
VL: EIVLTQSPATLSSSPGERATLSCRASQSVSSYLAWYQQKPGQAPRLLIYDASNRATGTPARFSGSGSGTDFTLTISSLEPEDFAVYYCHQRSHWPPIFTFGPGT
B7: 01951/G12 antibody (human IgG1, kappa) (antibody, V domains shown)
VH: EVQLVESGGGVVQPGRSLRLSCAASGFTFSSYGMHWVRQAPGKGLEWVAIIWYDGSNKYYADSVKGRFTISRDNSKNTLYLQMNSLRAEDTAVYYCARLWFGDLDAFDIWGQGTMVTVSS
VL: EIVLTQSPATLSLSPGERAILSCRAGQSVSSYLVWYQQKPGQAPRLLIYDASNRATGIPARFSGSGSGTDFTLTISSLEPEDFAVYYCQQRSSWPPVYTFGQGTKLEIKR
B8: 01771/E10 antibody (human IgG1, kappa) (antibody, V domains shown)
VH: QVQLVQSGGGVVQPGRSLRLSCAASGFTFSSYGMHWVRQAPGKGLEWVAIIWYDGSNKYYADSVKGRFTISRDNSKNTLYLQMNSLRAEDTAVYYCARLWFGDLDAFDIWGQGTMVT
VL: EIVLTQSPATLSLSPGERATLSCRASQSVSSYLAWYQQKPGQAPRLLIYDASNRATGIPARFSGSGSGTDFTLTISSLEPEDFAVYYCHQRSSWPPIFTFGPGT

What follows are binders tested against T1, recombinant human IL-13 (human, UniProt P35225 35-146, limits assumed) (assay: SPR, BIAcore 2000; Fab captured via anti-human L-kappa antibody, hrIL-13 injected; 1:1 Langmuir model).
T1 construct: also called hrIL-13; rhIL-13
T1 sequence (P35225 35-146 limits assumed): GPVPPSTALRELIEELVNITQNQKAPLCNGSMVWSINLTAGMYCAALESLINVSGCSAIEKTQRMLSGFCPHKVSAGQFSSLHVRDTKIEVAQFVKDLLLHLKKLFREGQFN
Procedure: Quantitative Analysis of Binding Affinities: Determination of Anti-Human IL-13 Fab Candidates Surface plasmon resonance measurements quantifying the interaction of anti-IL-13 Fabs with several hrIL-13 are performed using the optical biosensor, BIAcore 2000. Specific binding of IL-13 to a respective IL-13 Fab immobilized on a BIAcore chip can be measured by following accumulation of the ligand on the receptor. The microscopic association ($kon$) and dissociation rates ($koff$) can be obtained directly from the mass accumulation rates on the chip and are expressed in response units (RUs). Anti-IL-13 Fab is immobilized on the chip surface via a secondary anti-human Lκ antibody (Jackson Immunochemicals). This capture antibody was covalently bound using the 'Amine coupling kit' (BIAcore, Cat. No. BR-1000-50) as recommended in the manufacturers' protocols. 250 μl of varying concentrations of hrIL-13 was injected at flow rate of 20 μl/min and the kinetic trace was recorded. The chip surface was regenerated by two acid wash steps using 100 mM HCl and injecting 10 μl with a flow rate of 20 μl/min. This treatment leads to dissociation of the Fab IL-13 complex due to reversible acid denaturation. No significant loss of binding activity was observed when the antibody was reinjected for a subsequent run. The kinetic traces were evaluated with the BIAcore software applying the 1:1 Langmuir association model The summarized affinity data on human IL-13 is shown in Table 1 herein.
B1 gave a Kd of 0.1 nM.
B2 was tested, and the Kd was 0.197 nM.
With B3 the Kd was 0.48 nM.
Work on B4 yielded a Kd of 0.343 nM.

The binders below were run against T1, recombinant human IL-13 (assay: cell-based or functional assay).
For B5, the “EC50 [nM] human IL-13 (IL-13-induced eotaxin release from human lung fibroblasts)” value (shortened to “EC50”) was 1.23 nM.
With B6 the “EC50” value was 0.95 nM.
With B7 the “EC50” value was 0.33 nM.
B8 was tested, and the “EC50” value was 1.71 nM.
